Source: article PMC5520056, “Cryo-EM structures of the ATP-bound Vps4^E233Q hexamer and its complex with Vta1 at near-atomic resolution” (Nature Communications, 2017)
Each block holds one binder with its values, some of them ahead of it.

B3: Vps4^E233Q (full-length yeast Vps4 containing an E233Q mutation) (enzyme, Saccharomyces cerevisiae, UniProt P52917 1-437, looked up)
chain: MSTGDFLTKGIELVQKAIDLDTATQYEEAYTAYYNGLDYLMLALKYEKNPKSKDLIRAKFTEYLNRAEQLKKHLESEEANAAKKSPSAGSGSNGGNKKISQEEGEDNGGEDNKKLRGALSSAILSEKPNVKWEDVAGLEGAKEALKEAVILPVKFPHLFKGNRKPTSGILLYGPPGTGKSYLAKAVATEANSTFFSVSSSDLVSKWMGESEKLVKQLFAMARENKPSIIFIDQVDALTGTRGEGESEASRRIKTELLVQMNGVGNDSQGVLVLGATNIPWQLDSAIRRRFERRIYIPLPDLAARTTMFEINVGDTPCVLTKEDYRTLGAMTEGYSGSDIAVVVKDALMQPIRKIQSATHFKDVSTEDDETRKLTPCSPGDDGAIEMSWTDIEADELKEPDLTIKDFLKAIKSTRPTVNEDDLLKQEQFTRDFGQEGN
notes: Vps4 (vacuolar protein sorting 4), Saccharomyces cerevisiae, full length, with E233Q; Hexamer with ATP, dimer without ATP; written as the protomer because its self-association is what is measured; also called E233Q mutant; Vps4 E233Q mutant; source: E. coli BL21 (DE3), purified (Ni-NTA, apyrase treatment, SEC)

Experiments:
[1] = target: B3; assay: SEC; Vps4 mutants at 5 uM with Vta1 at molar ratio 1:2, 1 mM ATP, 4 C, 1 h; Superose 6 10/300 GL in assembly buffer; conditions: both partners purified
Vps4 (wild-type, yeast) = target: T1, Vps4 (wild-type, yeast) (Saccharomyces cerevisiae, UniProt P52917 1-437, Cy5 maleimide (labelling efficiency 48%) in the single-molecule assay; unlabelled in the ATPase assay); assay: cell-based or functional assay
T1 sequence (looked up): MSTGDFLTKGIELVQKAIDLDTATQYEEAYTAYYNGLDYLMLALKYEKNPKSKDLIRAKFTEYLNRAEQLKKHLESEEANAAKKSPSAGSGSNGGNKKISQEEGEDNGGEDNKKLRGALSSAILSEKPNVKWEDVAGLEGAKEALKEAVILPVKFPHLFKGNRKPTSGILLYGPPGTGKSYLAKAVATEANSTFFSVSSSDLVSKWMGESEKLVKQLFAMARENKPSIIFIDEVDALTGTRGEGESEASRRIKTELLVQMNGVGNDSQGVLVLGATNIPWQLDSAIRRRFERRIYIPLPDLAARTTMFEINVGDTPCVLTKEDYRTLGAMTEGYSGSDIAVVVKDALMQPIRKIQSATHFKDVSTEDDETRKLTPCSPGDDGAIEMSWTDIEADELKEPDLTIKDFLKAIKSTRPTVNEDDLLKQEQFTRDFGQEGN

[2] = target: the molecule itself; assay: cryo-EM structure; ATP-bound Vps4^E233Q-Vta1 complex (1.5- to 2-fold molar excess of Vta1, 1 mM ATP, Superose 6), no glutaraldehyde; no symmetry imposed; 4.2 A
[3] = target: T2, Vps4^E233QC376S, Cy5-labelled (single-cysteine mutant) (Saccharomyces cerevisiae, UniProt P52917 1-437, E233Q | C376S, Cy5 maleimide on the single cysteine); assay: fluorescence of two dyes in the SEC-separated complex; Cy5-Vps4 and Cy3-Vta1 single-cysteine mutants incubated at molar ratio 1:2 with ATP on ice 1 h, complex separated by SEC in assembly buffer; concentrations from standard curves of fluorescence; conditions: both partners purified
T2 construct: Vps4, Saccharomyces cerevisiae, with E233Q and C376S (only one cysteine left); source: E. coli BL21 (DE3), purified as for other mutant proteins, labelled with Cy5 maleimide
T2 sequence (looked up): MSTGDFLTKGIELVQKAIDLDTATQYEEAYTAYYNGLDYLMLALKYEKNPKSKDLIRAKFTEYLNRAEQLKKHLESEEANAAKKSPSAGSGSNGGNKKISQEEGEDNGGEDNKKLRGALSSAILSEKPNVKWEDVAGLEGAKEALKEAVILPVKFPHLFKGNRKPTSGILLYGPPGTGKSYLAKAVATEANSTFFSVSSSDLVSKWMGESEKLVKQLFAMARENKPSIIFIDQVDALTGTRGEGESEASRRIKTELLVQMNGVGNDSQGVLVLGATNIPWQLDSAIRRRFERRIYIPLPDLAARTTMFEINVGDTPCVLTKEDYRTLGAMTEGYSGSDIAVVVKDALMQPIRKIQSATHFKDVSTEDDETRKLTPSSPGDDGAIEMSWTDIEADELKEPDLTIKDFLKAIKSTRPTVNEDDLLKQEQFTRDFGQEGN

[4] = target: the molecule itself; assay: SEC-MALS; 200 ul of 5 mg/ml (50 uM) Vps4^E233Q preincubated with 1 mM ATP at 4 C for 1 h; Superdex 200 10/300 GL; assembly buffer (20 mM HEPES pH 7.5, 100 mM NaCl, 1 mM DTT, 2 mM MgCl2, 1 mM ATP)
[5] = target: the molecule itself; assay: SEC; oligomeric state without ATP (Supplementary Fig. 9)
[6] = target: the molecule itself; assay: SEC; oligomeric state with ATP: each mutant at 100 uM incubated with 1 mM ATP at 4 C for 1 h; Superdex 200 10/300 GL in assembly buffer

binding result [1]: binds | ATPase activity (malachite green) of 1 uM wild-type Vps4 in the presence of Vta1 (Vps4 (wild-type, yeast)): 2 fold
B1: Vta1 (Vps twenty associated 1) (natural protein, Saccharomyces cerevisiae)
chain: MASNAARVVATAKDFDKVGLGIIGYYLQLYAVELILSEEDRSQEMTALATELLDTIEAFKKEIGGESEAEDSDKSLHVMNTLIHDQEKAKIYMLNFTMSLYNEKLKQLKDGPWDVMLKRSLWCCIDLFSCILHLWKENISETSTNSLQKRIKYCKIYLSKLAKGEIGSSDEKTLDYADFADDSEEIKDEDVDHQTSDLENNNNDKVEGLAPKDQTTSYEPVDEVPEFIDDADSVNEEEQTVDKNEDAITKDEQQVVKKEVDLTRPSAPSEPAAAEHKSYTKDELTKIMDRASKIEQIQKLAKYAISALNYEDLPTAKDELTKALDLLNSI
notes: Vta1, Saccharomyces cerevisiae, gene amplified from yeast genomic DNA; also called Vta1 dimer; source: E. coli BL21 (DE3), purified (Ni-NTA, apyrase treatment, SEC)
binding result [2]: binds

stoichiometry N [3]: 2.06 Vta1/Vps4^E233Q (molar ratio)
B2: Vta1^C124S154S, Cy3-labelled (single-cysteine mutant) (natural protein, Saccharomyces cerevisiae)
chain: MASNAARVVATAKDFDKVGLGIIGYYLQLYAVELILSEEDRSQEMTALATELLDTIEAFKKEIGGESEAEDSDKSLHVMNTLIHDQEKAKIYMLNFTMSLYNEKLKQLKDGPWDVMLKRSLWCSIDLFSCILHLWKENISETSTNSLQKRIKYSKIYLSKLAKGEIGSSDEKTLDYADFADDSEEIKDEDVDHQTSDLENNNNDKVEGLAPKDQTTSYEPVDEVPEFIDDADSVNEEEQTVDKNEDAITKDEQQVVKKEVDLTRPSAPSEPAAAEHKSYTKDELTKIMDRASKIEQIQKLAKYAISALNYEDLPTAKDELTKALDLLNSI
modifications: Cy3 maleimide on the single cysteine
notes: Vta1, Saccharomyces cerevisiae, with C124S and C154S (only one cysteine left); source: E. coli BL21 (DE3), purified as for other mutant proteins, labelled with Cy3 maleimide

Binder: B3
stoichiometry N [4]: 6 | stoichiometry N [5]: 2

B4: Vps4 mutant E233QR325A (enzyme, Saccharomyces cerevisiae, UniProt P52917 1-437, looked up)
chain: MSTGDFLTKGIELVQKAIDLDTATQYEEAYTAYYNGLDYLMLALKYEKNPKSKDLIRAKFTEYLNRAEQLKKHLESEEANAAKKSPSAGSGSNGGNKKISQEEGEDNGGEDNKKLRGALSSAILSEKPNVKWEDVAGLEGAKEALKEAVILPVKFPHLFKGNRKPTSGILLYGPPGTGKSYLAKAVATEANSTFFSVSSSDLVSKWMGESEKLVKQLFAMARENKPSIIFIDQVDALTGTRGEGESEASRRIKTELLVQMNGVGNDSQGVLVLGATNIPWQLDSAIRRRFERRIYIPLPDLAARTTMFEINVGDTPCVLTKEDYATLGAMTEGYSGSDIAVVVKDALMQPIRKIQSATHFKDVSTEDDETRKLTPCSPGDDGAIEMSWTDIEADELKEPDLTIKDFLKAIKSTRPTVNEDDLLKQEQFTRDFGQEGN
notes: Vps4, Saccharomyces cerevisiae, with E233Q and R325A; also called E233QR325A mutant; source: E. coli BL21 (DE3), purified (Ni-NTA, apyrase treatment, SEC)
stoichiometry N [6]: 6 | stoichiometry N [5]: 2
